Results taken from paper doi:10.1101/2024.06.21.600001 (bioRxiv, 2024).

How the values were obtained:
Assay in all cases: immunostaining of cells or tissue
Conditions in all cases: one partner purified
[1] = target: Reston ebolavirus glycoprotein (RESTV GP) (Reston ebolavirus, isolate ; …, UniProt Q66799)
[2] = target: T1, Zaire ebolavirus glycoprotein (EBOV GP), full-length transmembrane, Mayinga (Zaire ebolavirus (EBOV), Mayinga, UniProt Q05320)
T1 construct: source: MDCK SIAT-1 cells expressing EBOV GP, on the cell surface

[3] = target: T2, Bundibugyo ebolavirus glycoprotein (BDBV GP), full-length transmembrane (Bundibugyo ebolavirus (YP_003815435.1), UniProt B8XCN0)
T2 construct: source: MDCK SIAT-1 cells expressing BDBV GP, on the cell surface

[4] = target: Tai Forest ebolavirus glycoprotein (TAFV GP) (Tai Forest ebolavirus (TAFV), UniProt Q66810)
[5] = target: T3, Sudan ebolavirus glycoprotein (SUDV GP), full-length transmembrane (Sudan ebolavirus (SUDV), UniProt Q7T9D9)
T3 construct: source: MDCK SIAT-1 cells expressing SUDV GP, on the cell surface

Measured: binding result

B1: mAb 11886, recombinant rabbit IgG (antibody, V domains shown)
VH: QSVEESGGRLVTPGTPLTLTCIVSGFSLSNYYMSWVRQVPGKGLEWIGVIGWSGTSSYASWAKGRFTISKTASTTVDLKITSPTTEDTATYFCARVLYIGGGFNYYDAFDPWGPGTLVTVS
VL: DVVMTQTPASVSEPVGGTVTIKCQASQSIGSNLAWYQQKPGQPPKLLIYAASTLASGVPSRFKGSGSGTEFTLTISDLECADAATYYCQCTYYDSSYVYNNFGGGTEVVVK
notes: source: HEK293F, transfected, purified (Protein A); copies: 2 + 2
binds: [1] | [2] | [3] | [4] | [5]

B2: mAb 11883, recombinant rabbit IgG (antibody, V domains shown)
VH: QEQLVESGGGLVQPEGSLTLTCTASGFSFSSNCWRCWVRQAPGKGLEWIACVCAGRSGGTTYYASWAKGRFTISKTSSPTVTLQMTSLTAADTATYFCARAGYDDYGDASFFNLWGPGTLVTVS
VL: AVVLTQTASPVSTPVGGTVTIKCQASQNIYSNLAWYQQKPGQPPKLLIYSASTLASGVPSRFKGSGSGTEYTLTISDLECADAATYYCQRYYYLSGSADNTFGGGTEVVVK
notes: as for B1
binds: [1] | [2] | [3] | [4] | [5]
